B1: τ131 (123–566), TPR array, wild type [S. cerevisiae] / τ138 (641–693), τ131-Interaction Region (τIR) [S. cerevisiae] (parent complex)
chain 1: VLDPEVAQLLSQANEAFVRNDLQVAERLFNEVIKKDARNFAAYETLGDIYQLQGRLNDCCNSWFLAAHLNASDWEFWKIVAILSADLDHVRQAIYCFSRVISLNPMEWESIYRRSMLYKKTGQLARALDGFQRLYMYNPYDANILRELAILYVDYDRIEDSIELYMKVFNANVERREAILAALENALDSSDEESAAEGEDADEKEPLEQDEDRQMFPDINWKKIDAKYKCIPFDWSSLNILAELFLKLAVSEVDGIKTIKKCARWIQRRESQTFWDHVPDDSEFDNRRFKNSTFDSLLAAEKEKSYNIPIDIRVRLGLLRLNTDNLVEALNHFQCLYDETFSDVADLYFEAATALTRAEKYKEAIDFFTPLLSLEEWRTTDVFKPLARCYKEIESYETAKEFYELAIKSEPDDLDIRVSLAEVYYRLNDPETFKHMLVDVVEMR
chain 2: SKKATFTDVIHDTEIYFFDQTEKNRFHRGKKSVERIRKFQNRQKNAKIKASDD
B2: τ131 (123–566), TPR array, wild type [S. cerevisiae] / τ138 (546–693), eWH-τIR [S. cerevisiae] (parent complex)
chain 1: B1 chain 1
chain 2: SARSLRSLQRQRAILKVMNTIGGVAYLREQFYESVSKYMGSTTTLDKKTVRGDVDLMVESEKLGARTEPVSGRKIIFLPTVGEDAIQRYILKEKDSKKATFTDVIHDTEIYFFDQTEKNRFHRGKKSVERIRKFQNRQKNAKIKASDD

By Kd is commonly meant a measure of binding affinity in units of concentration.

The first test covers variants of B1. Kind of test: ITC; parent: 80 nM.
For the variant chain 1 E375K, the Kd came to 89 nM.

Turning to chain 1 E376K, the Kd came out at 833 nM.

Take chain 1 E350K: the Kd stood at 833 nM.

The variants in the next test derive from B2. In words: ITC; parent: 100 nM. A general note: In ITC the heat of successive injections is recorded.
As for chain 1 E350K, the Kd was found to be 415 nM.

In the case of chain 1 E376K, the Kd was determined as 971 nM.

For the origin of these results see paper PMC4490372, “Architecture of TFIIIC and its role in RNA polymerase III pre-initiation complex assembly” (Nature Communications, 2015).
